{"source": "patent US20180127483A1", "about": "(CHILDREN S MEDICAL CENTER, published 2018)", "binders": {"B1": {"name": "human VEGF165 (ligand, UniProt P15692-4 27-191, looked up)", "chain": "APMAEGGGQNHHEVVKFMDVYQRSYCHPIETLVDIFQEYPDEIEYIFKPSCVPLMRCGGCCNDEGLECVPTEESNITMQIMRIKPHQGQHIGEMSFLQHNKCECRPKKDRARQENPCGPCSERRKHLFVQDPQTCKCSCKNTDSRCKARQLELNERTCRCDKPRR"}}, "molecular_target": "T1, recombinant human Flt-1/Fc chimera (R&D System 321-FL) (human, UniProt P17948 27-758)", "T1 construct": "extracellular domain; Bought from R&D Systems; also called VEGF-R1 extracellular domain Ig fusion; full-length VEGF-Receptor 1 extracellular domain; Fc part of the bought chimera not given", "T1 sequence (P17948 27-758, change not shown)": "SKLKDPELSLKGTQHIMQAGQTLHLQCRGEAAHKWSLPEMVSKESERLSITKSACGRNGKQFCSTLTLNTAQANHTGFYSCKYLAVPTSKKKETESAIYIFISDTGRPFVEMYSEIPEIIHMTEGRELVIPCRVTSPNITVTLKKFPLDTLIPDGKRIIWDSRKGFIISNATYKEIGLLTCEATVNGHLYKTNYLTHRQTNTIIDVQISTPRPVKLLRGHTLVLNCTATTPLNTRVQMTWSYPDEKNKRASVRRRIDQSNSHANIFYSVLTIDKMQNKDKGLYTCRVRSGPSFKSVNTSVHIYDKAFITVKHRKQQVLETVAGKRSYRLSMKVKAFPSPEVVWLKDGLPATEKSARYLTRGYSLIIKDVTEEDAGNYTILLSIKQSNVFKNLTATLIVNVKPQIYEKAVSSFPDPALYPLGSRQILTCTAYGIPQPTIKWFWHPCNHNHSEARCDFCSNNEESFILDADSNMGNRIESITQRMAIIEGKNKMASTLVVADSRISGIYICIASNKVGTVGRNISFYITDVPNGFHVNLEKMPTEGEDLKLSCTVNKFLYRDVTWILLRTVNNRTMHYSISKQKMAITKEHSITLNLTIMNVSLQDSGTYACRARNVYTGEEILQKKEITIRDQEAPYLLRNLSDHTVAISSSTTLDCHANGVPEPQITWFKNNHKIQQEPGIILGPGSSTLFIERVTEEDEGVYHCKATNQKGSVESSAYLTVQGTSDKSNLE", "experiment": "solution equilibrium: 10 pM human VEGF165 incubated overnight with 0.05-1000 pM binder, unbound VEGF165 measured by ELISA, curve fit", "description": "FIG. 4. Binding affinity analysis of VEGF-binding proteins. In brief, a fixed concentration of human VEGF₁₆₅ (10 pM) was incubated overnight at room temperature with varying concentrations (0.05 pM to 1000 pM) of VEGF binding proteins. 20 hours later, concentration of unbound VEGF₁₆₅ was measured by ELISA. Binding curves were fitted using Prizm software."}
{"binder": "B1", "values": [{"measurement": "Kd", "value": 0.0259, "unit": "nM"}]}
